Target: L chains of normal human 7S γ-globulin (human)
Experiment: AUC

- per cent of the material at the molecular weight of the dimer: 84 per cent
Substance: L chains of normal human 7S γ-globulin (natural protein)

Reference: paper PMC2137388
